Results: patent US20170369590A1 (Genmab, published 2017)
Substitutions are numbered along the chain they refer to.

B1: HuMab 159 (antibody, V domains shown)
VH: EVQLVQSGAEVKKPGESLKISCKGSGYNFTSYWIGWVRQMPGKGLEWMGIIYPGDSDTRYSPSFQGQVTISADKSISTAYLQWSSLKASDTAMYYCARWGTYYDILTGYFNWFDPWGQGTLVTVSS
VL: DIQMTQSPSSLSASVGDRVTITCRASQGISSWLAWYQQKPEKAPKSLIYAASSLQSGVPSRFSGSGSGTDFTLTISSLQPEDFATYYCQQYYIYPWTFGQGTKVEIK
notes: also called TH1014-159; PC1014-159
B2: HuMab 127 (antibody, V domains shown)
VH: EVQLVQSGAEVKKPGESLTISCKGSGYSFSIYWIGWVRQMPGKGLEWMGIIFPGDSDIRYSPSFQGQVTISADKSISTAYLQWSSLKASDTAMYYCARQPGDWSPRHWYFDLWGRGTLVTVSS
VL: VIWMTQSPSLLSASTGDRVTISCRMSQGISSYLAWYQQKPGKAPELLIYAASTLQSGVPSRFSGSGSGTDFTLTISYLQSEDFATYYCQQYYSFPLTFGGGTKVEIK
B3: HuMab 129 (antibody, V domains shown)
VH: QVQLVESGGGVVQPGRSLRLSCAASGFTFSTFAIHWVRQAPGKGLEWVAVISYDGGHKFYADSVKGRFTISRDNSKNTLYLQMNSLRAEDTAMYYCARGLGVWGAFDYWGQGTLVTVSS
VL: EIVLTQSPATLSLSPGERATLSCRASQSVSSYLAWYQQKPGQAPRLLIYDASNRATGIPARFSGSGSGTDFTLTISSLEPEDFAVYYCQQRSNWWTFGQGTKVEIK
B4: HuMab 025 (antibody, V domains shown)
VH: QVQLQQWGAGLLKPSETLSLTCAVYGGSFSDYYWNWIRQPPGKGLEWIGEIHHSGSTNYNPSLKSRVTISVDTSKNQFSLKLSSVTAADTAVYYCARGYYDSGVYYFDYWAQGTLVTVSS
VL: B1 VL with S31R, Q55R, Y92N, I93S, W96I, K103R, V104L
notes: also called TH1014-025; PC1014-025
B5: HuMab 084 (antibody, V domains shown)
VH: QVQLVQSGAEVKKPGSSVKVSCKASGGTFRTYAINWVRQAPGQGLEWMGRINTVLGIVNHAQKFQGRVTITADKSTNTAYMELNSLRSEDTAVYYCAREKGVDYYYGIEVWGQGTTVTVSS
VL: DIQMTQSPSSVSASVGDRVTITCRASQGISSWLAWYQHKPGKAPKLLIYVASTLQSGVPSRFSGSGSGTDFTLTISSLQPEDFATYYCQQANSFPLTFGGGTKVEIK
notes: also called TH1014-084; PC1014-084
B6: HuMab 091 (antibody, V domains shown)
VH: QVQLQQWGAGLLKPSETLSLTCAVSGGSFSGYYWTWIRQPPGKGLEWIGEIYHSGDTNYNPSLKSRVTISVDTSKNQFSLKLYSVTAADTAVYYCARLYFGSGIYYLDYWGQGTLVTVSS
VL: B1 VL with A34V, Y92N, I93S, Y94F, W96P
notes: also called TH1014-091; PC1014-091
B7: HuMab 169 (antibody, V domains shown)
VH: QVQLVQSGAEVKKPGASVKVSCKASGYTFTNYGISWVRQAPGQGLEWMGWLSAYSGNTIYAQKLQGRVTMTTDTSTTTAYMELRSLRSDDTAVYYCARDRIVVRPDYFDYWGQGTLVTVSS
VL: EIVLTQSPATLSLSPGERATLSCRASQSVSSYLAWYQQKPGQAPRLLIYDASNRATGIPARFSGSGSGTDFTLTISSLEPEDFAVYYCQQRSNWPRTFGQGTKVEIK
notes: also called TH1014-169; PC1014-169
B8: HuMab 050 (antibody, V domains shown)
VH: EVQLLESGGGLVQPGGSLRLSCAASGFTFSSYAMNWVRQAPGKGLEWVSAISGRGGTTYYADSVKGRFTISRDNSKNTLYLQMSSLRAEDTAVYYCAKARANWDYFDYWGQGTLVTVSS
VL: B5 VL with V50A, T53I, L96I, G100Q, K103R, V104L
notes: also called TH1014-050; PC1014-050

target: T1, HER2ECDHis (human, UniProt P04626 23-653, biotinylated in the cross-block ELISA (sites not given)); assay: ELISA; competitor 127
T1 construct: range 1-653; expressed in HEK-293F; also called soluble HER2; biotinylated HER2ECDHis

Row | Binder | % binding vs no competitor [%]
1 | B1 | 15
2 | B2 | 11

target: T2, human epidermal growth factor receptor 2 (HER2), membrane-bound on cells (human, UniProt P04626 23-1255); assay: cell-based or functional assay

Row | Binder | % cells killed, A431, anti-kappa-ETA'-conjugated [%] | EC50 of cell kill, A431, anti-kappa-ETA'-conjugated [µg/mL]
3 | B3 | 75.9 | ~0.0106
4 | B4 | 86.7 | ~0.00977
5 | B5 | 50.5 | –
6 | B6 | 83.3 | ~0.00986
7 | B7 | 34 | –

target: T1, HER2ECDHis; assay: ELISA; competitor pert
Protocol: (§1) Next, the ELISA wells were washed with PBST (PBS supplemented with 0.05% Tween-20 [Sigma-Aldrich, Zwijndrecht, The Netherlands]) and blocked for one hour at room temperature (RT) with PBSTC (PBST supplemented 2% [v/v] chicken serum [Gibco, Paisley, Scotland]). The ELISA wells were then washed with PBST and incubated for one hour at RT with HER2ECDHis serially diluted in PBSTC (0.25-2 μg/mL in 2-fold dilutions). […] The plate was thereafter washed with PBST and incubated for one hour with 0.1 μg/mL Streptavidin-poly-HRP (Sanquin, Amsterdam, The Netherlands) diluted in PBST. After washing, the reaction was visualized through a 15 minutes incubation with 2,2′-azino-bis (3-ethylbenzothiazoline-6-sulfonic acid) (ABTS: one ABTS tablet diluted in 50 mL ABTS buffer (Roche Diagnostics, Almere, The Netherlands)) at RT protected from light. The colorization was stopped by adding an equal volume of oxalic acid (Sigma-Aldrich, Zwijndrecht, The Netherlands). Fluorescence at 405 nm was measured on a microtiter plate reader (Biotek Instruments, Winooski, USA).
(§2) Each HER2 antibody was coated to the ELISA wells at the sub-optimal dose that was determined as described above. After blocking of the ELISA wells, the wells were incubated with the predetermined concentration of 1 μg/mL biotinylated HER2ECDHis in the presence or absence of an excess of a second (competitor) HER2 antibody. The ELISA was then performed as described above. […] Percentage competition was then determined as 100 minus the percentage of inhibition.

Row | Binder | % binding vs no competitor [%]
8 | B1 | 112
9 | B3 | 22
10 | B4 | 8
11 | B5 | 101
12 | B8 | 95
13 | B6 | 5
14 | B7 | 101

target: T1, HER2ECDHis; assay: ELISA; competitor C1
Protocol: as §1, §2

Row | Binder | % binding vs no competitor [%]
15 | B1 | 96
16 | B2 | 112

target: T1, HER2ECDHis; assay: ELISA; competitor 084
Protocol: as §1, §2

Row | Binder | % binding vs no competitor [%]
17 | B3 | 92
18 | B4 | 104
19 | B5 | 20
20 | B8 | 74
21 | B6 | 100
22 | B7 | 73

target: T1, HER2ECDHis; assay: ELISA; competitor 098
Protocol: as §1, §2

Row | Binder | % binding vs no competitor [%]
23 | B1 | 11
24 | B2 | 58
25 | B3 | 106
26 | B4 | 102
27 | B5 | 109
28 | B8 | 102
29 | B6 | 98
30 | B7 | 105

target: T1, HER2ECDHis; assay: ELISA; competitor 132
Protocol: as §1, §2

Row | Binder | % binding vs no competitor [%]
31 | B1 | 79
32 | B2 | 44

target: T1, HER2ECDHis; assay: ELISA; competitor 091
Protocol: as §1, §2

Row | Binder | % binding vs no competitor [%]
33 | B3 | 76
34 | B4 | 21
35 | B5 | 104
36 | B8 | 98
37 | B6 | 15
38 | B7 | 105

target: T1, HER2ECDHis; assay: ELISA; competitor 153
Protocol: as §1, §2

Row | Binder | % binding vs no competitor [%]
39 | B1 | 40
40 | B2 | 21
41 | B3 | 98
42 | B4 | 99
43 | B5 | 98
44 | B8 | 104
45 | B6 | 98
46 | B7 | 102

target: T1, HER2ECDHis; assay: ELISA; competitor 129
Protocol: as §1, §2

Row | Binder | % binding vs no competitor [%]
47 | B3 | 12
48 | B4 | 15
49 | B5 | 104
50 | B8 | 110
51 | B6 | 78
52 | B7 | 106

target: T2, human epidermal growth factor receptor …; assay: cell-based or functional assay; remark: another data set of the same source

Row | Binder | % cells killed, AU565, anti-kappa-ETA'-conjugated [%] | EC50 of cell kill, AU565, anti-kappa-ETA'-conjugated [µg/mL]
53 | B1 | 70.3 | 0.0349
54 | B2 | 69 | 0.0345
55 | B3 | 60.8 | 0.0309
56 | B4 | 60 | 0.0167
57 | B5 | 58.1 | 0.027
58 | B8 | 52.4 | 0.0127
59 | B6 | 50.6 | 0.0465
60 | B7 | 49.9 | 0.0356

target: T2, human epidermal growth factor receptor …; assay: cell-based or functional assay; remark: another data set of the same source

Row | Binder | Maximal MFI, fab-CypHer5E internalization, AU565 [MFI] | EC50, fab-CypHer5E internalization, AU565 [µg/mL]
61 | B1 | 92400 | –
62 | B2 | 138000 | ~0.00968
63 | B3 | 60300 | 0.00715
64 | B4 | 63400 | 0.0301
65 | B5 | 71100 | 0.0305
66 | B6 | 50700 | 0.033
67 | B7 | 38800 | –

target: T1, HER2ECDHis; assay: ELISA; competitor 025
Protocol: as §1, §2

Row | Binder | % binding vs no competitor [%]
68 | B3 | 55
69 | B4 | 18
70 | B5 | 106
71 | B8 | 104
72 | B6 | 13
73 | B7 | 98

target: T1, HER2ECDHis; assay: ELISA; competitor 159
Protocol: as §1, §2

Row | Binder | % binding vs no competitor [%]
74 | B1 | 6
75 | B2 | 8

target: T1, HER2ECDHis; assay: ELISA; competitor 050
Protocol: as §1, §2

Row | Binder | % binding vs no competitor [%]
76 | B3 | 97
77 | B4 | 100
78 | B5 | 76
79 | B8 | 12
80 | B6 | 95
81 | B7 | 21

target: T1, HER2ECDHis; assay: ELISA; competitor tras
Protocol: as §1, §2

Row | Binder | % binding vs no competitor [%]
82 | B1 | 111
83 | B2 | 102
84 | B3 | 93
85 | B4 | 98
86 | B5 | 74
87 | B8 | 13
88 | B6 | 99
89 | B7 | 19

target: T1, HER2ECDHis; assay: ELISA; competitor F5
Protocol: as §1, §2

Row | Binder | % binding vs no competitor [%]
90 | B1 | 86
91 | B2 | 88

target: T1, HER2ECDHis; assay: ELISA; competitor 169
Protocol: as §1, §2

Row | Binder | % binding vs no competitor [%]
92 | B3 | 99
93 | B4 | 98
94 | B5 | 73
95 | B8 | 30
96 | B6 | 99
97 | B7 | 45
